These results are taken from article PMC7721647, “The Human RNA Helicase DDX21 Presents a Dimerization Interface Necessary for Helicase Activity” (iScience, 2020).

Series [1] concerns the target DDX21_(Core-DD) (human). The series can be described thus: SEC-MALS; purified DDX21 constructs alone; conditions in the Transparent Methods (not shown). (SEC sorts molecules by how far they enter the pores of the column.)
The target in series [2] is DDX21_(Core-DD) (human). The series can be described thus: SEC-SAXS; SAXS coupled to size exclusion chromatography; oligomeric state from SAXS molecular weight estimates (Table S3).
For series [3], the target named is DDX21_(Core-DD) (human). As to the kind of experiment: mass photometry; purified proteins alone in the low nanomolar range (30 and 15 nM); monomer to dimer.
The target in a further series is T1, DDX21Fl (human, UniProt Q9NR30 1-783).
T1 sequence: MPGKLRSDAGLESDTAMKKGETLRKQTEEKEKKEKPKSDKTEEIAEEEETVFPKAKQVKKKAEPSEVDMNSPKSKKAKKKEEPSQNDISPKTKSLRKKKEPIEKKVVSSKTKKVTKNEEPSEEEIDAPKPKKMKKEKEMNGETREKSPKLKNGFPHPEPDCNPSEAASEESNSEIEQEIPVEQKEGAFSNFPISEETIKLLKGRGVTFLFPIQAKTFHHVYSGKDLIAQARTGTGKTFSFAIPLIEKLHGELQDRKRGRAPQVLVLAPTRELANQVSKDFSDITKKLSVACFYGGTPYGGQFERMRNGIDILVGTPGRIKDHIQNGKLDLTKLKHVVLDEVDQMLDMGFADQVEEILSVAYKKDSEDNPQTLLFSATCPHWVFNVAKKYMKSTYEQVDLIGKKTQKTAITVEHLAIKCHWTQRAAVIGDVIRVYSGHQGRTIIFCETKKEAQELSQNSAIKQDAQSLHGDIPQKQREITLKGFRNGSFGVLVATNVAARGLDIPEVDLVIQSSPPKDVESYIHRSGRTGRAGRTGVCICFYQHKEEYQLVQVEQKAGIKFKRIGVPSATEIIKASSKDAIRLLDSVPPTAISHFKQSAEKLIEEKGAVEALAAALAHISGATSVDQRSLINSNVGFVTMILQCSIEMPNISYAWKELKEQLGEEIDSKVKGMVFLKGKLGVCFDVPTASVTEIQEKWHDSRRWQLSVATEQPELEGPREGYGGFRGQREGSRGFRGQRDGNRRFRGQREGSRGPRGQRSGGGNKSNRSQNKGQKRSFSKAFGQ
As to the kind of experiment: fluorescence polarization; FP: 50 mM Tris pH 7.5, 50 mM KCl, 5 mM MgCl2, no ATP; Hill-slope fit; temperature not given in the material. The conditions noted are these: protein: recombinant; tags: N-terminal Trx-His6, cut with thrombin; chain copies: 2; label: 5'-FAM on RNA; R-loop: 15-mer RNA on DNA oligo 1; DNA duplex arms with unpaired DNA oligo 2 loop. (Fluorescence polarisation rises when a labelled molecule tumbles more slowly, as on binding a larger partner.)

Series [4] concerns the molecule itself. As to the kind of experiment: cell-based or functional assay.
Series [5] concerns the molecule itself. The series can be described thus: SEC-SAXS; SAXS coupled to size exclusion chromatography; oligomeric state from SAXS molecular weight estimates (Table S3).
Series [6] deals with the molecule itself. The series can be described thus: mass photometry; DDX21Fl-R-loop complex at 30 nM.
Series [7] concerns the molecule itself. The series can be described thus: SEC-MALS; purified DDX21 constructs alone; conditions in the Transparent Methods (not shown).

Take DDX21_(Core-DD) (domain or fragment): the stoichiometry N with DDX21_(Core-DD) (human) [1], in the series with DDX21_(Core-DD) (human) [2] and with DDX21_(Core-DD) (human) [3] was 2 throughout.

B1: R-loop (mixed)
RNA: GUUUCGGAUCGACGC
DNA 1: GTACCCGGGGATCCTCTAGAGTCGAGCGTCGATCCGAAACTTGGCACTGGCCGTCGTTTTACAAC
DNA 2: GTTGTAAAACGACGGCCAGTGCCTTTTCCCAGCCTCAATCTCATCACTCTAGAGGATCCCCGGGTAC
As to B1, the Kd in the series with DDX21Fl amounted to 9.2 ± 0.7 nM.

B2: DDX21ΔN monomer mutant (domain or fragment)
chain: GAFSNFPISEETIKLLKGRGVTFLFPIQAKTFHHVYSGKDLIAQARTGTGKTFSFAIPLIEKLHGELQDRKRGRAPQVLVLAPTRELANQVSKDFSDITKKLSVACFYGGTPYGGQFERMRNGIDILVGTPGRIKDHIQNGKLDLTKLKHVVLDEVDQMLDMGFADQVEEILSVAYKKDSEDNPQTLLFSATCPHWVFNVAKKYMKSTYEQVDLIGKKTQKTAITVEHLAIKCHWTQRAAVIGDVIRVYSGHQGRTIIFCETKKEAQELSQNSAIKQDAQSLHGDIPQKQREITLKGFRNGSFGVLVATNVAARGLDIPEVDLVIQSSPPKDVESYIHRSGRTGRAGRTGVCICFYQHKEEYQLVQVEQKAGIKFKRIGVPSATEIIKASSKDAIRLLDSVPPTAISHFKQSAEKLIEEKGAVEARRRRRRHISGATSVDQRSLINSNVGFVTMILQCSIEMPNISYAWKELKEQLGEEIDSKVKGMVFLKGKLGVCFDVPTASVTEIQEKWHDSRRWQLSVATEQPELEGPREGYGGFRGQREGSRGFRGQRDGNRRFRGQREGSRGPRGQRSGGGNKSNRSQNKGQKRSFSKAFGQ
With B2, the “dsRNA unwinding (in vitro helicase assay with RNase T1), activity relative to the dimeric protein” value in series [4] was about 50%.

B3: DDX21ΔN (domain or fragment, human, UniProt Q9NR30 186-783, looked up)
chain: GAFSNFPISEETIKLLKGRGVTFLFPIQAKTFHHVYSGKDLIAQARTGTGKTFSFAIPLIEKLHGELQDRKRGRAPQVLVLAPTRELANQVSKDFSDITKKLSVACFYGGTPYGGQFERMRNGIDILVGTPGRIKDHIQNGKLDLTKLKHVVLDEVDQMLDMGFADQVEEILSVAYKKDSEDNPQTLLFSATCPHWVFNVAKKYMKSTYEQVDLIGKKTQKTAITVEHLAIKCHWTQRAAVIGDVIRVYSGHQGRTIIFCETKKEAQELSQNSAIKQDAQSLHGDIPQKQREITLKGFRNGSFGVLVATNVAARGLDIPEVDLVIQSSPPKDVESYIHRSGRTGRAGRTGVCICFYQHKEEYQLVQVEQKAGIKFKRIGVPSATEIIKASSKDAIRLLDSVPPTAISHFKQSAEKLIEEKGAVEALAAALAHISGATSVDQRSLINSNVGFVTMILQCSIEMPNISYAWKELKEQLGEEIDSKVKGMVFLKGKLGVCFDVPTASVTEIQEKWHDSRRWQLSVATEQPELEGPREGYGGFRGQREGSRGFRGQRDGNRRFRGQREGSRGPRGQRSGGGNKSNRSQNKGQKRSFSKAFGQ
notes: human DDX21 without the N-terminal 185 amino acids (start 186 worked out from this statement); source: Transparent Methods
With B3, in series [5], the “stoichiometry N” value is 2.

B4: DDX21Fl monomer mutant (enzyme)
chain: MPGKLRSDAGLESDTAMKKGETLRKQTEEKEKKEKPKSDKTEEIAEEEETVFPKAKQVKKKAEPSEVDMNSPKSKKAKKKEEPSQNDISPKTKSLRKKKEPIEKKVVSSKTKKVTKNEEPSEEEIDAPKPKKMKKEKEMNGETREKSPKLKNGFPHPEPDCNPSEAASEESNSEIEQEIPVEQKEGAFSNFPISEETIKLLKGRGVTFLFPIQAKTFHHVYSGKDLIAQARTGTGKTFSFAIPLIEKLHGELQDRKRGRAPQVLVLAPTRELANQVSKDFSDITKKLSVACFYGGTPYGGQFERMRNGIDILVGTPGRIKDHIQNGKLDLTKLKHVVLDEVDQMLDMGFADQVEEILSVAYKKDSEDNPQTLLFSATCPHWVFNVAKKYMKSTYEQVDLIGKKTQKTAITVEHLAIKCHWTQRAAVIGDVIRVYSGHQGRTIIFCETKKEAQELSQNSAIKQDAQSLHGDIPQKQREITLKGFRNGSFGVLVATNVAARGLDIPEVDLVIQSSPPKDVESYIHRSGRTGRAGRTGVCICFYQHKEEYQLVQVEQKAGIKFKRIGVPSATEIIKASSKDAIRLLDSVPPTAISHFKQSAEKLIEEKGAVEARRRRRRHISGATSVDQRSLINSNVGFVTMILQCSIEMPNISYAWKELKEQLGEEIDSKVKGMVFLKGKLGVCFDVPTASVTEIQEKWHDSRRWQLSVATEQPELEGPREGYGGFRGQREGSRGFRGQRDGNRRFRGQREGSRGPRGQRSGGGNKSNRSQNKGQKRSFSKAFGQ
On to B4, for which the “dsRNA unwinding (in vitro helicase assay with RNase T1), activity relative to the dimeric protein” value in series [4] is about 50%.

B5: full-length DDX21 (DDX21Fl) with uncleaved affinity tag (enzyme, human, UniProt Q9NR30 1-783, looked up)
chain: MPGKLRSDAGLESDTAMKKGETLRKQTEEKEKKEKPKSDKTEEIAEEEETVFPKAKQVKKKAEPSEVDMNSPKSKKAKKKEEPSQNDISPKTKSLRKKKEPIEKKVVSSKTKKVTKNEEPSEEEIDAPKPKKMKKEKEMNGETREKSPKLKNGFPHPEPDCNPSEAASEESNSEIEQEIPVEQKEGAFSNFPISEETIKLLKGRGVTFLFPIQAKTFHHVYSGKDLIAQARTGTGKTFSFAIPLIEKLHGELQDRKRGRAPQVLVLAPTRELANQVSKDFSDITKKLSVACFYGGTPYGGQFERMRNGIDILVGTPGRIKDHIQNGKLDLTKLKHVVLDEVDQMLDMGFADQVEEILSVAYKKDSEDNPQTLLFSATCPHWVFNVAKKYMKSTYEQVDLIGKKTQKTAITVEHLAIKCHWTQRAAVIGDVIRVYSGHQGRTIIFCETKKEAQELSQNSAIKQDAQSLHGDIPQKQREITLKGFRNGSFGVLVATNVAARGLDIPEVDLVIQSSPPKDVESYIHRSGRTGRAGRTGVCICFYQHKEEYQLVQVEQKAGIKFKRIGVPSATEIIKASSKDAIRLLDSVPPTAISHFKQSAEKLIEEKGAVEALAAALAHISGATSVDQRSLINSNVGFVTMILQCSIEMPNISYAWKELKEQLGEEIDSKVKGMVFLKGKLGVCFDVPTASVTEIQEKWHDSRRWQLSVATEQPELEGPREGYGGFRGQREGSRGFRGQRDGNRRFRGQREGSRGPRGQRSGGGNKSNRSQNKGQKRSFSKAFGQ
notes: human DEAD-box RNA helicase DDX21, full length; Form used in mass photometry; also called wild-type protein; source: Transparent Methods
With B5, the “stoichiometry N” value in series [6] stood at 2.

B6: full-length DDX21 (DDX21Fl), affinity tag cleaved (enzyme, human, UniProt Q9NR30 1-783, looked up)
chain: MPGKLRSDAGLESDTAMKKGETLRKQTEEKEKKEKPKSDKTEEIAEEEETVFPKAKQVKKKAEPSEVDMNSPKSKKAKKKEEPSQNDISPKTKSLRKKKEPIEKKVVSSKTKKVTKNEEPSEEEIDAPKPKKMKKEKEMNGETREKSPKLKNGFPHPEPDCNPSEAASEESNSEIEQEIPVEQKEGAFSNFPISEETIKLLKGRGVTFLFPIQAKTFHHVYSGKDLIAQARTGTGKTFSFAIPLIEKLHGELQDRKRGRAPQVLVLAPTRELANQVSKDFSDITKKLSVACFYGGTPYGGQFERMRNGIDILVGTPGRIKDHIQNGKLDLTKLKHVVLDEVDQMLDMGFADQVEEILSVAYKKDSEDNPQTLLFSATCPHWVFNVAKKYMKSTYEQVDLIGKKTQKTAITVEHLAIKCHWTQRAAVIGDVIRVYSGHQGRTIIFCETKKEAQELSQNSAIKQDAQSLHGDIPQKQREITLKGFRNGSFGVLVATNVAARGLDIPEVDLVIQSSPPKDVESYIHRSGRTGRAGRTGVCICFYQHKEEYQLVQVEQKAGIKFKRIGVPSATEIIKASSKDAIRLLDSVPPTAISHFKQSAEKLIEEKGAVEALAAALAHISGATSVDQRSLINSNVGFVTMILQCSIEMPNISYAWKELKEQLGEEIDSKVKGMVFLKGKLGVCFDVPTASVTEIQEKWHDSRRWQLSVATEQPELEGPREGYGGFRGQREGSRGFRGQRDGNRRFRGQREGSRGPRGQRSGGGNKSNRSQNKGQKRSFSKAFGQ
notes: human DEAD-box RNA helicase DDX21, full length; Tag state is told only for the SEC-MALS mass (cleaved); Construct details are in the Transparent Methods; also called nucleolar RNA helicase II/Guα; source: Transparent Methods
In the case of B6, the “stoichiometry N” value in series [7] is 2.

As usually defined, the stoichiometry N is a count of units in the complex or per binding partner. The term Kd denotes the constant that tells how readily two partners part at equilibrium.
